Experimental data reported in article PMC1343528 (The Journal of Cell Biology, 2005).

Biological target: calmodulin, purified (UniProt P0DP23 1-149)
Assay: pull-down

B1: GST fusion of α1C aa 1581–1690 with EEDAAA in place of TVGKFY (Mut6) (domain or fragment)
chain: not shown
Question: Does B1 bind?
Answer: binds
